Measurements taken from the supplement of paper PMC7877785.
± gives the uncertainty stated by the source.

Experiment: self-splicing fitness, log relative to wild type (ln ratio); higher = more splicing; Tetrahymena group I intron in knt gene, E. coli kanamycin selection, DiMSum; sequences stand for … in CUCUCU…GGAGGGAAAAGUUAUCAGGCAUGCACCUGGUAGCUAGUCUUUAAACCAAUAGAUUGCAUCGGUUUAAAAGGCAAGACCGUCAAAUUGCGGGAAAGGGGUCAACAGCCGUUCAGUACCAAGUCUCAGGGGAAACUUUGAGAUGGCCUUGCAAAGGGUAUGGUAAUAAGCUGACGGACAUGGUCCUAACCACGCAGCCAAGUCCUAAGUCAACAGAUCUUCUGUUGAUAUGGAUGCAGUUCACAGACUAAAUGUCGGUCGGGGAAGAUGUAUUCUUCUCAUAAGAUAUAGUCGGACCUCUCCUUAAUGGGAGCUAGCGGAUGAAGUGAUGCAACACUGGAGCCGCUGGGAACUAAUUUGUAUGCGAAAGUAUAUUGAUUAGUUUUGGAGUACUCGUGGUCG
Method in brief: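 Six replicate transformations of E. coli BL21(DE3) with a pET-22b(+) library were grown overnight at 37°C or 30°C. The library randomised all eight P1ex-region intron nucleotides, the intron lying in the knt kanamycin-resistance gene, and plates were LB agar with or without 25 μg/mL kanamycin plus 100 μg/mL carbenicillin, 50 μM IPTG and 0.2% rhamnose. Pooled colonies were amplicon-sequenced on an Illumina HiSeq 2500, and fitness is the DiMSum error-weighted combination of wild-type-normalised replicate fold changes, kanamycin versus none.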

Sequence	self-splicing fitness (ln) (30 °C)	self-splicing fitness (ln) (37 °C)
AAGAAGCAAUAUUACGAUGU	-1.29 ± 0.086	-1.01 ± 0.1
AAGAAGCAAUAUUACGAUUC	-1.49 ± 0.1	-0.941 ± 0.14
AAGAAGCAAUAUUACGCCGG	-2.02 ± 0.24	-1.81 ± 0.18
AAGAAGCAAUAUUACGCCUG	-0.11 ± 0.11	-0.509 ± 0.14
AAGAAGCAAUAUUACGCGAU	-3.59 ± 0.41	-2 ± 0.42
AAGAAGCAAUAUUACGCGCG	-0.562 ± 0.12	-0.0457 ± 0.15
AAGAAGCAAUAUUACGCGUU	-2.74 ± 0.11	-1.32 ± 0.11
AAGAAGCAAUAUUACGCUUG	-1.23 ± 0.11	-0.951 ± 0.14
AAGAAGCAAUAUUACGGAUG	-1.8 ± 0.076	-2.03 ± 0.12
AAGAAGCAAUAUUACGGCAG	-1.35 ± 0.099	-0.774 ± 0.12
AAGAAGCAAUAUUACGGGCU	-1.35 ± 0.13	-2.09 ± 0.2
AAGAAGCAAUAUUACGGUGC	-3.77 ± 0.2	-1.68 ± 0.17
AAGAAGCAAUAUUACGGUUC	-2.86 ± 0.14	-0.743 ± 0.15
AAGAAGCAAUAUUACGUAAA	-2.27 ± 0.1	-1.14 ± 0.14
AAGAAGCAAUAUUACGUCCC	-1.06 ± 0.16	0.89 ± 0.21
AAGAAGCAAUAUUACGUGGG	-2.71 ± 0.13	-2.57 ± 0.14
AAGAAGCAAUAUUACGUGGU	-3.58 ± 0.14	-2.23 ± 0.14
AAGAAGCAAUAUUACGUUAG	-3.65 ± 0.31	-2.77 ± 0.22
AAGCAGCAAUAUUACGACUA	-0.00923 ± 0.1	-0.791 ± 0.13
AAGCAGCAAUAUUACGAGAU	-3.14 ± 0.17	-1.61 ± 0.14
AAGCAGCAAUAUUACGAGGG	-2.45 ± 0.14	-2.28 ± 0.2
AAGCAGCAAUAUUACGAGUA	-2.87 ± 0.19	-2.08 ± 0.14
AAGCAGCAAUAUUACGAUCG	-2.29 ± 0.14	-0.905 ± 0.12
AAGCAGCAAUAUUACGAUUU	0.17 ± 0.061	0.619 ± 0.079
AAGCAGCAAUAUUACGCAAU	-1.23 ± 0.085	-1.22 ± 0.091
AAGCAGCAAUAUUACGCAGC	-2.55 ± 0.16	-3.41 ± 0.39

Sequence	self-splicing fitness (ln) (30 °C)	self-splicing fitness (ln) (37 °C)
AAGCAGCAAUAUUACGCAGU	-3.36 ± 0.23	-1.52 ± 0.13
AAGCAGCAAUAUUACGCCAG	-2.67 ± 0.36	-1.43 ± 0.41
AAGCAGCAAUAUUACGCGCA	-1.73 ± 0.14	-0.501 ± 0.2
AAGCAGCAAUAUUACGCUAG	-2.56 ± 0.12	-2.84 ± 0.14
AAGCAGCAAUAUUACGGAAA	-2.74 ± 0.12	-2.26 ± 0.14
AAGCAGCAAUAUUACGGCAA	-0.0737 ± 0.06	0.139 ± 0.081
AAGCAGCAAUAUUACGGCGU	-0.0119 ± 0.067	0.201 ± 0.079
AAGCAGCAAUAUUACGGGAA	-3.05 ± 0.22	-2.15 ± 0.17
AAGCAGCAAUAUUACGGUAU	-1.55 ± 0.055	-1.13 ± 0.078
AAGCAGCAAUAUUACGUCCC	-1.01 ± 0.15	-0.803 ± 0.2
AAGCAGCAAUAUUACGUCCU	-0.341 ± 0.081	-0.442 ± 0.094
AAGCAGCAAUAUUACGUUUA	-1.53 ± 0.084	-0.691 ± 0.074
AAGGAGCAAUAUUACGAGAU		-2.41 ± 0.24
AAGGAGCAAUAUUACGCCGA	-2.33 ± 0.18	-0.979 ± 0.26
AAGGAGCAAUAUUACGCGCG	-2.19 ± 0.24	-0.975 ± 0.23
AAGGAGCAAUAUUACGCUAG	-2.17 ± 0.2	
AAGGAGCAAUAUUACGCUCA		-0.14 ± 0.37
AAGGAGCAAUAUUACGGACG		-0.216 ± 0.26
AAGGAGCAAUAUUACGGAUU	-2.19 ± 0.11	-1.69 ± 0.095
AAGGAGCAAUAUUACGGCCG	-1.99 ± 0.45	
AAGGAGCAAUAUUACGGCUA	-1.92 ± 0.12	-0.126 ± 0.13
AAGGAGCAAUAUUACGGGCU	-2.94 ± 0.24	-2.53 ± 0.28
AAGGAGCAAUAUUACGGGGA	-3.91 ± 0.29	-2.25 ± 0.25
AAGGAGCAAUAUUACGUGAA	-2.22 ± 0.34	
AAGGAGCAAUAUUACGUGCG	-2.36 ± 0.19	-2.09 ± 0.23
AAGGAGCAAUAUUACGUUGC	-4.58 ± 0.42	-1.71 ± 0.23

Sequence	self-splicing fitness (ln) (30 °C)	self-splicing fitness (ln) (37 °C)
AAGGAGCAAUAUUACGUUGU	-2.61 ± 0.15	-2.53 ± 0.21
AAGUAGCAAUAUUACGAACA	-1.1 ± 0.13	-0.811 ± 0.18
AAGUAGCAAUAUUACGACAA	-0.505 ± 0.073	0.0804 ± 0.084
AAGUAGCAAUAUUACGACAU	0.0523 ± 0.012	-0.0429 ± 0.033
AAGUAGCAAUAUUACGACCA	-1.55 ± 0.16	0.396 ± 0.21
AAGUAGCAAUAUUACGACUA	-0.0153 ± 0.098	0.0263 ± 0.13
AAGUAGCAAUAUUACGAGGG	-3.71 ± 0.24	-3.29 ± 0.28
AAGUAGCAAUAUUACGAGUU	-1.86 ± 0.098	-0.204 ± 0.096
AAGUAGCAAUAUUACGAUCC	-0.772 ± 0.19	-0.304 ± 0.29
AAGUAGCAAUAUUACGAUGA	-0.567 ± 0.14	-0.511 ± 0.15
AAGUAGCAAUAUUACGCAAU	-2.09 ± 0.14	-1.46 ± 0.17
AAGUAGCAAUAUUACGCGCU	-1.47 ± 0.11	-0.822 ± 0.12
AAGUAGCAAUAUUACGCGUA	-2.15 ± 0.13	-1.29 ± 0.14
AAGUAGCAAUAUUACGCUCA	-0.287 ± 0.076	0.5 ± 0.094
AAGUAGCAAUAUUACGGACU	-0.577 ± 0.11	-0.212 ± 0.15
AAGUAGCAAUAUUACGGAUG	-3.53 ± 0.39	-1.76 ± 0.17
AAGUAGCAAUAUUACGGGAG	-4.01 ± 0.27	-2.82 ± 0.23
AAGUAGCAAUAUUACGGGUA	-1.49 ± 0.16	-1.09 ± 0.17
AAGUAGCAAUAUUACGGUAC	-2.65 ± 0.18	-1.75 ± 0.18
AAGUAGCAAUAUUACGGUCU	-0.291 ± 0.062	-0.0526 ± 0.086
AAGUAGCAAUAUUACGUACA	-0.476 ± 0.11	-0.759 ± 0.14
AAGUAGCAAUAUUACGUAGG	-4.35 ± 0.28	-1.75 ± 0.18
AAGUAGCAAUAUUACGUAUG	-3.38 ± 0.22	-1.4 ± 0.19
AAGUAGCAAUAUUACGUCGU	-0.969 ± 0.093	-0.724 ± 0.11
AAGUAGCAAUAUUACGUGAC	-2.41 ± 0.19	-1.85 ± 0.4
AAGUAGCAAUAUUACGUGAU	-2.24 ± 0.098	-1.77 ± 0.12
